Laboratory results as given in patent publication US20260248947A1, “Methods of Treating Cancer Using Anti-HER2 Antibody-Drug Conjugates and HER2 Kinase Inhibitors” (Seagen Inc., priority 2023, published 2026).
Each block holds one molecule with its values, some of them ahead of it.

Tests used:
[1] = tested on: HER2+ locally advanced or metastatic breast cancer (LA/mBC); conditions: subjects that progressed following taxane plus trastuzumab treatment; cited from earlier work
[2] = biological target: T1, HER2 (Homo sapiens, UniProt P04626); test: Internalization assay of Fabfluor-labeled disitamab compared to trastuzumab (IncuCyte); format: cell-based; parameters: endogenous in cells; host or cells: SK-BR-3, BT-474, HCC-202, EFM-192C, BT-483, CAMA-1, NCI-N87, OE19, RERF-GC-1B
Procedure: The internalization experiments were conducted by detecting an antibody-bound pH sensitive probe using automated time-lapse microscopy. Briefly, breast cancer cell lines SK-BR-3, BT-474, HCC-202, EFM-192C, BT-483, and CAMA-1 and gastric cancer cell lines NCI-N87, OE19, and RERF-GC-1B were seeded in 96-well flat clear-bottom black tissue culture-treated microplates (Corning, cat #3603). Cells were plated at 1.5×10^4-2.5×10^4 cells/200 μL/well in growth medium and allowed to adhere overnight at 37° C. Disitamab, trastuzumab, and isotype control antibody (human IgG) were labeled with IncuCyte Fabfluor-pH Red Antibody Labeling Reagent (Essen Bioscience, cat #4722) according to the manufacturer's protocol. Volumes of the test antibodies, Fabfluor reagent and medium required were calculated at 2× the final assay concentration, and the Fabfluor reagent was added at a molar ratio of 1:3 to the antibody. Fabfluor dye fluoresces only upon exposure to an acidified compartment, namely endocytic vesicles and lysosomes, signifying internalization and intracellular processing of the ADC. Antibody and Fabfluor were mixed gently and incubated at 37° C. for 15 minutes. Media containing Fabfluor-labeled disitamab or trastuzumab ([…] final concentration) was added to cells. The plates were arranged on microplate trays in the IncuCyte SX3 system (Essen Bioscience), and scans were acquired using the Standard protocol. Phase data and red channel data (acquisition time set to 400 ms) were collected, with 4 images per well every 30 minutes for the first 6 hours and every 2 hours after that for up to 40 hours with the objective set at 10×. Quantification of fluorescence signal intensity was performed using the IncuCyte software analysis tool.

[3] = biological target: T1, HER2; test: Internalization assay of Fabfluor-labeled disitamab with or without tucatinib (IncuCyte); format: cell-based; parameters: endogenous in cells; host or cells: SK-BR-3, BT-474, HCC-202, EFM-192C, NCI-N87, OE19; conditions: 100 nM tucatinib
Procedure: (§1) The internalization experiments were conducted by detecting an antibody-bound pH sensitive probe using automated time-lapse microscopy. Briefly, breast cancer cell lines SK-BR-3, BT-474, HCC-202, and EFM-192C and gastric cancer cell lines NCI-N87 and OE19 were seeded in 96-well flat clear-bottom black tissue culture-treated microplates (Coming, cat #3603). Cells were plated at 1.5×10^4-2.5×10^4 cells/200 μL/well in growth medium and allowed to adhere overnight at 37° C. Disitamab and isotype control antibody (human IgG) were labeled with IncuCyte Fabfluor-pH Red Antibody Labeling Reagent (Essen Bioscience, cat #4722) according to the manufacturer's protocol. Volumes of the test antibodies, Fabfluor reagent and medium required were calculated at 2× the final assay concentration, and the Fabfluor reagent was added at a molar ratio of 1:3 to the antibody. Antibody and Fabfluor were mixed gently and incubated at 37° C. for 15 minutes. Media containing Fabluor-labeled disitamab ([…] final concentration) with or without tucatinib (100 nM final concentration) was added to cells. The plates were arranged on microplate trays in the IncuCyte SX3 system (Essen Bioscience), and scans were acquired using the Standard protocol. Phase data and red channel data (acquisition time set to 400 ms) were collected, with 4 images per well every 30 minutes for the first 6 hours and every 2 hours after that for up to 72.5 hours with the objective set at 10×. Quantification of fluorescence signal intensity was performed using the IncuCyte software analysis tool. Cell surface HER2 density was quantified using qFACS analysis as described supra.
The analysis was refined and tuned per cell line utilizing phase area confluence and manual image selection for preview and training of the algorithm. Upon completion of the analysis, red object integrated intensity (RCU×μm^2/image) data were graphed using GraphPad Prism. The experiment was performed in duplicate (technical replicates) for two biological replicates.

[4] = tested on: HER2 cell surface protein levels; test: qFACS analysis of cell-surface HER2 levels upon tucatinib treatment; format: cell-based, human; conditions: 100 nM tucatinib
Procedure: HER2 cell surface levels were determined by qFACS analysis. Briefly, cells were stained with an anti-HER2 antibody (R&D Systems, Inc.; #MAB1129) and Zombie Aqua (BioLegend, Inc.; #423101) for dead cell exclusion. Cells were fixed, and HER2 receptor copy number per cell was quantified using a QIFIKIT (Agilent Dako) per the manufacturer's protocol.
as §1

Molecule: trastuzumab emtansine [T-DM1]
overall response (either complete or partial response) [1]: 34.2% | subjects alive without disease progression at 12 months [1]: 34.1%

disitamab internalization as compared to trastuzumab ([2]; BT-474): Increased | disitamab internalization as compared to trastuzumab ([2]; BT-483): Increased | disitamab internalization as compared to trastuzumab ([2]; CAMA-1): Increased | disitamab internalization as compared to trastuzumab ([2]; EFM-192C): Increased | disitamab internalization as compared to trastuzumab ([2]; HCC-202): Increased | disitamab internalization as compared to trastuzumab ([2]; NCI-N87): Increased | disitamab internalization as compared to trastuzumab ([2]; OE19): Increased | disitamab internalization as compared to trastuzumab ([2]; RERF-GC-1B): Increased | disitamab internalization as compared to trastuzumab ([2]; SK-BR-3): Increased | disitamab internalization in the presence of tucatinib compared to disitamab alone ([3]; EFM-192C): increased | disitamab internalization in the presence of tucatinib compared to disitamab alone ([3]; NCI-N87): increased | disitamab internalization in the presence of tucatinib compared to disitamab alone ([3]; OE19): increased | disitamab internalization in the presence of tucatinib compared to disitamab alone ([3]; SK-BR-3): increased
Molecule: disitamab

Molecule: Cc1cc(Nc2ncnc3ccc(NC4=NC(C)(C)CO4)cc23)ccc1Oc1ccn2ncnc2c1 [tucatinib, Tucatinib]
cell-surface HER2 levels over time compared with untreated cells ([4]; BT-474): increase | cell-surface HER2 levels over time compared with untreated cells ([4]; BT-483): increase | cell-surface HER2 levels over time compared with untreated cells ([4]; CAMA-1): increase | cell-surface HER2 levels over time compared with untreated cells ([4]; EFM-192C): increase | cell-surface HER2 levels over time compared with untreated cells ([4]; HCC-202): increase | cell-surface HER2 levels over time compared with untreated cells ([4]; NCI-N87): increase | cell-surface HER2 levels over time compared with untreated cells ([4]; OE19): increase | cell-surface HER2 levels over time compared with untreated cells ([4]; RERF-GC-1B): increase | cell-surface HER2 levels over time compared with untreated cells ([4]; SK-BR-3): increase
